Values belong to the molecule of their own block, whether it stands above or below them.
How the values were obtained:
PMNs [1] = assay: 125I-human mini TyrRS binding and competition assay on PMNs; settings: for inhibition of 125I-mini TyrRS binding to PMNs by unlabeled ligand: 10 nM 125I-mini TyrRS, 200-fold molar excess of unlabeled ligand, on ice 2 hours
Method: The interaction of human mini TyrRS and PMNs was examined in binding studies using radioiodinated TyrRS molecules (Moser et al., 1993, J. Biol. Chem. 268:7125-28). Custom radioiodination of mini TyrRS with was performed by Research & Diagnostic Antibody (Richmond, Calif.). In the binding assays, 2×10^6 PMNs were first suspended in 120 μl of RPMI-1640 medium containing 20 mM Hepes (pH 7.4) and 10 mg/ml bovine serum albumin. […] Following incubation, cells were separated from unbound radioactivity by centrifugation at approximately 8000×g for 2 minutes through 500 μL, of a 10% sucrose/phosphate-buffered saline (PBS) cushion. The supernatant was aspirated, and the cell sediment was resuspended using EcoLite (ICN Biomedicals, Irvine, Calif.) and analyzed in a scintillation counter.
Following incubation, cells were separated from unbound radioactivity as described herein.

chick CAM = assay: Inhibition of VEGF165-induced or mini TyrRS-induced angiogenesis in chick CAM; type: in vivo; settings: 3 μg inhibitor
Method: In vivo angiogenesis assays were conducted in chick chorioallantoic membrane (CAM) (Nicolaou et al., 1998, Bioorg. Med. Chem. 6:1185-208). Ten-day-old chick embryos were purchased from Mcintyre Poultry (Lakeside, Calif.) and were incubated at 37° C. and 70% humidity. A small hole was made with a small crafts drill (Dremel, Emerson Electric, Racine, Wis.) directly over the air sac at the end of the egg. The embryos were candled to determine a location to drill a second hole directly over embryonic blood vessels. […] A window was cut in the eggshell over the dropped CAM, exposing the CAM to direct access for experimental manipulation. Cortisone acetate-treated 5 mm filter disks were soaked with a particular protein sample (25 ng of VEGF165 or 250 ng of a given TyrRS molecule) and the filter disks added directly to the CAMs, which were relatively devoid of preexisting blood vessels. The windows were sealed with sterile tape and incubated at 37° C. At 0, 24, and 48 hours following incubation, 3 μg of […] (IP-10) (R & D Systems, Minneapolis, Minn.) was topically applied to the filter disks. After 72 hours, the CAM tissue associated with the filter disk was harvested and quantified using a stereomicroscope. Angiogenesis was assessed as the number of visible blood vessel branch points within the defined area of the filter disks. Each determination shown in FIG. 17 represents the mean from 5-8 embryos.
The angiostatic activity of human full-length TrpRS and human mini TrpRS was also analyzed in in vivo angiogenesis assays conducted in chick CAM. In vivo angiogenesis assays were performed as described in Example 12 with 3 μg of full-length TrpRS or mini TrpRS added to VEGF165-induced or mini TyrRS-induced CAM tissue.

MPs = assay: MP chemotaxis assay (ChemoTX microchemotaxis chamber); type: cell-based, human; settings: for MP migration induced by synthetic peptide: assay as in Example 2; for MP chemotaxis (MP migration): sample proteins 1 nM, 3 hours
Method: (§1) Cells for the various cytokine assays described were prepared from acid citrate dextrose-treated blood of normal healthy volunteers. Human PMNs were isolated from the blood by centrifugation (700×g) over Histopaque 1077 and 1119 (Sigma). […] This procedure was repeated twice. Human MPs were isolated by centrifugation on Histopaque 1077 (Sigma). The mononuclear fraction was obtained, washed twice in Hanks' balanced salt solution, resuspended in RPMI-1640 medium (Sigma) containing 10% heat-inactivated fetal bovine serum (Sigma), plated in tissue culture flasks, and incubated in a 6% CO2 incubator at 37° C. for 1-2 hours (Kumagai et al., 1979, J. Immunol. Methods 29:17-25). Nonadherent cells were removed by washing the flasks three times with Hanks' balanced salt solution, and adherent cells were harvested by incubation with calcium-magnesium free phosphate-buffered saline containing 2 mM EDTA for 15 minutes at 4° C., followed by extensive washing.
MP chemotaxis assays were performed in a ChemoTX microchemotaxis chamber (Neuro Probe, Gaithersburg, Md.) containing polycarbonate filters (5 μm pores) with polyvinylpyrrolidone (PVP). MPs were suspended in RPMI-1640 medium containing 1% heat-inactivated fetal bovine serum, and 10^4 cells were added to the upper chamber. Sample proteins (1 nM) were added to the lower compartment of chemotaxis chambers, and the chambers were incubated for 3 hours. After incubation, nonmigrating cells were removed, membranes were fixed in methanol, and migrating cells were visualized with the HEMACOLOR™ stain set (EM Diagnostic Systems, Gibbstown, N.J.). Migrating cells were counted in high-power fields (HPFs). Each determination shown in FIG. 2 represents the average of nine HPF measurements.

PMNs [2] = assay: PMN chemotaxis assay (ChemoTX microchemotaxis chamber); type: cell-based, human; settings: for PMN migration induced by synthetic peptide: assay as in Example 2; for PMN chemotaxis (PMN migration): sample proteins 1 nM, 45 min
Method: as §1
PMN chemotaxis assays were performed in a ChemoTX microchemotaxis chamber (described herein). Sample proteins (1 nM) were added to the lower compartment of chemotaxis chambers, and 10^4 PMNs were added to the upper compartment. Chambers were incubated for 45 min, and migrating cells were counted in HPFs. Each determination shown in FIG. 2 represents the average of nine HPF measurements.

Molecule: Gro: human recombinant Gro (Biosource International), α-chemokine
inhibition of 125I-mini TyrRS binding to PMNs by unlabeled ligand (PMNs [1]): did not significantly inhibit the binding

Molecule: IP-10: angiostatic α-chemokine (R & D Systems)
inhibition of VEGF165-induced angiogenesis in chick CAM (chick CAM; 25 ng VEGF165, 72 hours): inhibited
inhibition of mini TyrRS-induced angiogenesis in chick CAM (chick CAM; 250 ng mini TyrRS, 72 hours): inhibited

Molecule: R-V-G-F-I-Q-K (RVGFIQK; listed as Saccharomyces cerevisiae) [synthetic peptide derived from S. cerevisiae Arc1p, reference compound]
MP migration induced by synthetic peptide (MPs; synthetic heptapeptides): neither peptide induced PMN or MP migration
PMN migration induced by synthetic peptide (PMNs [2]; synthetic heptapeptides): neither peptide induced PMN or MP migration

Molecule: R-V-G-K-I-I-T (RVGKIIT; listed as Homo sapiens) [TyrRS carboxyl-terminal domain peptide, synthetic peptide derived from the TyrRS carboxyl-terminal domain]
dose-dependence of peptide effect on MP migration (MPs; synthetic heptapeptides): dose-dependence similar to that of the mature EMAP II peptide
MP migration induced by synthetic peptide (MPs; synthetic heptapeptides): MP migration
dose-dependence of peptide effect on PMN migration (PMNs [2]; synthetic heptapeptides): dose-dependence similar to that of the mature EMAP II peptide
PMN migration induced by synthetic peptide (PMNs [2]; synthetic heptapeptides): induced PMN migration

Molecule: R-V-G-R-I-I-K (RVGRIIK; Caenorhabditis elegans) [synthetic peptide derived from C. elegans MetRS, reference compound]
MP migration induced by synthetic peptide (MPs; synthetic heptapeptides): neither peptide induced PMN or MP migration
PMN migration induced by synthetic peptide (PMNs [2]; synthetic heptapeptides): neither peptide induced PMN or MP migration

inhibition of 125I-mini TyrRS binding to PMNs by unlabeled ligand (PMNs [1]): inhibited the binding
dissociation constant relative to that for human mini TyrRS (PMNs [1]; PMN binding competition): ≤ 200 fold
B1: S. cerevisiae TyrRS: S. cerevisiae tyrosyl-tRNA synthetase, NYR in place of ELR (protein)
chain: MSSAATVDPNEAFGLITKNLQEVLNPQIIKDVLEVQKRHLKLYWGTAPTGRPHCGYFVPMTKLADFLKAGCEVTVLLADLHAFLDNMKAPLEVVNYRAKYYELTIKAILRSINVPIEKLKFVVGSSYQLTPDYTMDIFRLSNIVSQNDAKRAGADVVKQVANPLLSGLIYPLMQALDEQFLDVDCQFGGVDQRKIFVLAEENLPSLGYKKRAHLMNPMVPGLAQGGKMSASDPNSKIDLLEEPKQVKKKINSAFCSPGNVEENGLLSFVQYVIAPIQELKFGTNHFEFFIDRPEKFGGPITYKSFEEMKLAFKEEKLSPPDLKIGVADAINELLEPIRQEFANNKEFQEASEKGYPVATPQKSKKAKKPKNKGTKYPGATKTNEIATKLEETKL
PMN chemotaxis over a concentration series (PMNs [2]; 0.1, 1, 10, 100, and 1000 nM): No significant chemotaxis
PMN chemotaxis (PMN migration) (PMNs [2]): no chemotaxis was observed

B2: extended carboxyl-terminal domain: recombinant residues 344-528 of human full-length TyrRS (protein, UniProt P54577 344-528, looked up, fragment)
chain: PSKQKPMAKGPAKNSEPEEVIPSRLDIRVGKIITVEKHPDADSLYVEKIDVGEAEPRTVVSGLVQFVPKEELQDRLVVVLCNLKPQKMRGVESQGMLLCASIEGINRQVEPLDPPAGSAPGEHVFVKGYEKGQPDEELKPKKKVFEKLQADFKISEECIAQWKQTNFMTKLGSISCKSLKGGNIS
MP chemotaxis (MP migration) (MPs): capable of can inducing both MP and PMN chemotaxis
PMN chemotaxis (PMN migration) (PMNs [2]): capable of can inducing both MP and PMN chemotaxis

B3: NAP-2: human recombinant NAP-2 (Biosource International), α-chemokine (protein)
chain: AELRCMCIKTTSGIHPKNIQSLEVIGKGTHCNQVEVIATLKDGRKICLDPDAPRIKKIVQKKLAGDESAD
inhibition of 125I-mini TyrRS binding to PMNs by unlabeled ligand (PMNs [1]): did not significantly inhibit the binding

B4: EMAP II: human mature endothelial monocyte-activating polypeptide II, C-terminal His6 tag (protein)
chain: ANNDAVLKRLEQKGAEADQIIEYLKQQVSLLKEKAILQATLREEKKLRVENAKLKKEIEELKQELIQAEIQNGVKQIPFPSGTPLHANSMVSENVIQSTAVTTVSSGTKEQIKGGTGDEKKAKEKIEKKGEKKEKKQQSIAGSADSKPIDVSRLDLRIGCIITARKHPDADSLYVEEVDVGEIAPRTVVSGLVNHVPLEQMQNRMVILLCNLKPAKMRGVLSQAMVMCASSPEKIEILAPPNGSVPGDRITFDAFPGEPDKELNPKKKIWEQIQPDLHTNDECVATYKGVPFEVKGKGVCRAQTMSNSGIKHHHHHH
concentration dependence of PMN migration (PMNs [2]): bell-shaped concentration dependence
PMN chemotaxis (PMN migration) (PMNs [2]): induction of PMN migration
inhibition of 125I-mini TyrRS binding to PMNs by unlabeled ligand (PMNs [1]): neither the TyrRS carboxyl-terminal domain nor EMAP II inhibited

B5: truncated mini TyrRS: recombinant truncated mini TyrRS comprising residues 1-344 of human full-length TyrRS (protein, UniProt P54577 1-344, looked up, fragment)
chain: MGDAPSPEEKLHLITRNLQEVLGEEKLKEILKERELKIYWGTATTGKPHVAYFVPMSKIADFLKAGCEVTILFADLHAYLDNMKAPWELLELRVSYYENVIKAMLESIGVPLEKLKFIKGTDYQLSKEYTLDVYRLSSVVTQHDSKKAGAEVVKQVEHPLLSGLLYPGLQALDEEYLKVDAQFGGIDQRKIFTFAEKYLPALGYSKRVHLMNPMVPGLTGSKMSSSEEESKIDLLDRKEDVKKKLKKAFCEPGNVENNGVLSFIKHVLFPLKSEFVILRDEKWGGNKTYTAYVDLEKDFAAEVVHPGDLKNSVEVALNKLLDPIREKFNTPALKKLASAAYPDP
MP chemotaxis (MP migration) (MPs): not for MPs
PMN chemotaxis (PMN migration) (PMNs [2]): capable of functioning as a chemoattractant for PMNs
